Experimental data reported in patent US20130005646A1 (Novo Nordisk, published 2013).
Starred links: 1 amine or outer side, 2 acyl side, 3 side chain; linkers in the order of their positions; H or OH if unused. Positions of bridges follow the written chain, without caps; N, C: chain ends. *: point of attachment. C20 diacid = O=C(O)CCCCCCCCCCCCCCCCCCC(=O)*; 19‑carboxyheptadecanoyl = not defined here; γGlu = O=C(O)[C@H](CCC(=O)[*:2])N[*:1]; AEEA = NCCOCCOCC(=O)O

B1: N-alpha-[(S)-4-Carboxy-4-(19-carboxynonadecanoylamino)butyryl]-Glu-Arg-[Glu1,Glu14,Arg17,Gln21,Gln22,Gln31,Gln35,Pro37]-pramlintide (peptide)
peptide: {C20 diacid-γGlu}-ERECNTATCATQRLAEFLRHSSQQFGPILPPTQVGSQTP-NH2
modifications: disulfide 4-9
SMILES: CC[C@H](C)[C@H](NC(=O)[C@@H]1CCCN1C(=O)CNC(=O)[C@H](Cc1ccccc1)NC(=O)[C@H](CCC(N)=O)NC(=O)[C@H](CCC(N)=O)NC(=O)[C@H](CO)NC(=O)[C@H](CO)NC(=O)[C@H](Cc1c[nH]cn1)NC(=O)[C@H](CCCNC(=N)N)NC(=O)[C@H](CC(C)C)NC(=O)[C@H](Cc1ccccc1)NC(=O)[C@H](CCC(=O)O)NC(=O)[C@H](C)NC(=O)[C@H](CC(C)C)NC(=O)[C@H](CCCNC(=N)N)NC(=O)[C@H](CCC(N)=O)NC(=O)[C@@H](NC(=O)[C@H](C)NC(=O)[C@@H]1CSSC[C@H](NC(=O)[C@H](CCC(=O)O)NC(=O)[C@H](CCCNC(=N)N)NC(=O)[C@H](CCC(=O)O)NC(=O)CC[C@H](NC(=O)CCCCCCCCCCCCCCCCCCC(=O)O)C(=O)O)C(=O)N[C@@H](CC(N)=O)C(=O)N[C@@H]([C@@H](C)O)C(=O)N[C@@H](C)C(=O)N[C@@H]([C@@H](C)O)C(=O)N1)[C@@H](C)O)C(=O)N[C@@H](CC(C)C)C(=O)N1CCC[C@H]1C(=O)N1CCC[C@H]1C(=O)N[C@H](C(=O)N[C@@H](CCC(N)=O)C(=O)N[C@H](C(=O)NCC(=O)N[C@@H](CO)C(=O)N[C@@H](CCC(N)=O)C(=O)N[C@H](C(=O)N1CCC[C@H]1C(N)=O)[C@@H](C)O)C(C)C)[C@@H](C)O
B2: N-alpha-[(S)-4-Carboxy-4-(19-carboxynonadecanoylamino)butyryl]-[Glu14,Arg18,Gln21,Ala25,Pro26,Ser28,Ser29,Pro37]-pramlintide (peptide)
peptide: {C20 diacid-γGlu}-KCNTATCATQRLAEFLVRSSQNFGAPLSSTNVGSNTP-NH2
modifications: disulfide 2-7
SMILES: CC(C)C[C@H](NC(=O)[C@H](CCCNC(=N)N)NC(=O)[C@H](CCC(N)=O)NC(=O)[C@@H](NC(=O)[C@H](C)NC(=O)[C@@H]1CSSC[C@H](NC(=O)[C@H](CCCCN)NC(=O)CC[C@H](NC(=O)CCCCCCCCCCCCCCCCCCC(=O)O)C(=O)O)C(=O)N[C@@H](CC(N)=O)C(=O)N[C@@H]([C@@H](C)O)C(=O)N[C@@H](C)C(=O)N[C@@H]([C@@H](C)O)C(=O)N1)[C@@H](C)O)C(=O)N[C@@H](C)C(=O)N[C@@H](CCC(=O)O)C(=O)N[C@@H](Cc1ccccc1)C(=O)N[C@@H](CC(C)C)C(=O)N[C@H](C(=O)N[C@@H](CCCNC(=N)N)C(=O)N[C@@H](CO)C(=O)N[C@@H](CO)C(=O)N[C@@H](CCC(N)=O)C(=O)N[C@@H](CC(N)=O)C(=O)N[C@@H](Cc1ccccc1)C(=O)NCC(=O)N[C@@H](C)C(=O)N1CCC[C@H]1C(=O)N[C@@H](CC(C)C)C(=O)N[C@@H](CO)C(=O)N[C@@H](CO)C(=O)N[C@H](C(=O)N[C@@H](CC(N)=O)C(=O)N[C@H](C(=O)NCC(=O)N[C@@H](CO)C(=O)N[C@@H](CC(N)=O)C(=O)N[C@H](C(=O)N1CCC[C@H]1C(N)=O)[C@@H](C)O)C(C)C)[C@@H](C)O)C(C)C
B3: N-alpha-[2-(2-{2-[2-(2-{2-[(S)-4-Carboxy-4-(19-carboxyheptadecanoylamino)butyrylamino]ethoxy}ethoxy)acetylamino]ethoxy}ethoxy)acetyl]-[Glu14,His17,Glu21,Pro37]- … (peptide)
peptide: {19‑carboxyheptadecanoyl-γGlu-AEEA-AEEA}-KCNTATCATQRLAEFLHHSSENFGPILPPTNVGSNTP-NH2
modifications: disulfide 2-7; reading uncertain; also: printed as N-alpha-[2-(2-{2-[2-(2-{2-[(S)-4-Carboxy-4-(19-carboxyheptadecanoylamino)butyrylamino]ethoxy}ethoxy)acetylamino]ethoxy}ethoxy)acetyl]-[Glu14,His17,Glu21,Pro37]-pramlintide
B4: N-alpha-[2-(2-{2-[2-(2-{2-[(S)-4-Carboxy-4-(19-carboxyheptadecanoylamino)butyrylamino]ethoxy}ethoxy)acetylamino]ethoxy}ethoxy)acetyl]-[Glu14,His17,Lys21,Pro37]- … (peptide)
peptide: {19‑carboxyheptadecanoyl-γGlu-AEEA-AEEA}-KCNTATCATQRLAEFLHHSSKNFGPILPPTNVGSNTP-NH2
modifications: disulfide 2-7; reading uncertain; also: printed as N-alpha-[2-(2-{2-[2-(2-{2-[(S)-4-Carboxy-4-(19-carboxyheptadecanoylamino)butyrylamino]ethoxy}ethoxy)acetylamino]ethoxy}ethoxy)acetyl]-[Glu14,His17,Lys21,Pro37]-pramlintide
B5: N-alpha-[(S)-4-Carboxy-4-(19-carboxynonadecanoylamino)butyryl]-[Glu14,Arg18,Ser21,Ser22,Ser28,Ser29,Asp31,Asp35,Pro37]-pramlintide (peptide)
peptide: {C20 diacid-γGlu}-KCNTATCATQRLAEFLVRSSSSFGPILSSTDVGSDTP-NH2
modifications: disulfide 2-7
SMILES: CC[C@H](C)[C@H](NC(=O)[C@@H]1CCCN1C(=O)CNC(=O)[C@H](Cc1ccccc1)NC(=O)[C@H](CO)NC(=O)[C@H](CO)NC(=O)[C@H](CO)NC(=O)[C@H](CO)NC(=O)[C@H](CCCNC(=N)N)NC(=O)[C@@H](NC(=O)[C@H](CC(C)C)NC(=O)[C@H](Cc1ccccc1)NC(=O)[C@H](CCC(=O)O)NC(=O)[C@H](C)NC(=O)[C@H](CC(C)C)NC(=O)[C@H](CCCNC(=N)N)NC(=O)[C@H](CCC(N)=O)NC(=O)[C@@H](NC(=O)[C@H](C)NC(=O)[C@@H]1CSSC[C@H](NC(=O)[C@H](CCCCN)NC(=O)CC[C@H](NC(=O)CCCCCCCCCCCCCCCCCCC(=O)O)C(=O)O)C(=O)N[C@@H](CC(N)=O)C(=O)N[C@@H]([C@@H](C)O)C(=O)N[C@@H](C)C(=O)N[C@@H]([C@@H](C)O)C(=O)N1)[C@@H](C)O)C(C)C)C(=O)N[C@@H](CC(C)C)C(=O)N[C@@H](CO)C(=O)N[C@@H](CO)C(=O)N[C@H](C(=O)N[C@@H](CC(=O)O)C(=O)N[C@H](C(=O)NCC(=O)N[C@@H](CO)C(=O)N[C@@H](CC(=O)O)C(=O)N[C@H](C(=O)N1CCC[C@H]1C(N)=O)[C@@H](C)O)C(C)C)[C@@H](C)O
B6: N-alpha-[(S)-4-Carboxy-4-(19-carboxynonadecanoylamino)butyryl]-[His1,Glu8,Glu14,His17,Arg18]-pramlintide (peptide)
peptide: {C20 diacid-γGlu}-HCNTATCETQRLAEFLHRSSNNFGPILPPTNVGSNTY-NH2
modifications: disulfide 2-7
SMILES: CC[C@H](C)[C@H](NC(=O)[C@@H]1CCCN1C(=O)CNC(=O)[C@H](Cc1ccccc1)NC(=O)[C@H](CC(N)=O)NC(=O)[C@H](CC(N)=O)NC(=O)[C@H](CO)NC(=O)[C@H](CO)NC(=O)[C@H](CCCNC(=N)N)NC(=O)[C@H](Cc1c[nH]cn1)NC(=O)[C@H](CC(C)C)NC(=O)[C@H](Cc1ccccc1)NC(=O)[C@H](CCC(=O)O)NC(=O)[C@H](C)NC(=O)[C@H](CC(C)C)NC(=O)[C@H](CCCNC(=N)N)NC(=O)[C@H](CCC(N)=O)NC(=O)[C@@H](NC(=O)[C@H](CCC(=O)O)NC(=O)[C@@H]1CSSC[C@H](NC(=O)[C@H](Cc2c[nH]cn2)NC(=O)CC[C@H](NC(=O)CCCCCCCCCCCCCCCCCCC(=O)O)C(=O)O)C(=O)N[C@@H](CC(N)=O)C(=O)N[C@@H]([C@@H](C)O)C(=O)N[C@@H](C)C(=O)N[C@@H]([C@@H](C)O)C(=O)N1)[C@@H](C)O)C(=O)N[C@@H](CC(C)C)C(=O)N1CCC[C@H]1C(=O)N1CCC[C@H]1C(=O)N[C@H](C(=O)N[C@@H](CC(N)=O)C(=O)N[C@H](C(=O)NCC(=O)N[C@@H](CO)C(=O)N[C@@H](CC(N)=O)C(=O)N[C@H](C(=O)N[C@@H](Cc1ccc(O)cc1)C(N)=O)[C@@H](C)O)C(C)C)[C@@H](C)O
B7: N-alpha-[(S)-4-Carboxy-4-(19-carboxynonadecanoylamino)butyryl]-[des1,Gly3,Glu14,His17,Arg18,Glu31,Gly35]-pramlintide (peptide)
peptide: {C20 diacid-γGlu}-CGTATCATQRLAEFLHRSSNNFGPILPPTEVGSGTY-NH2
modifications: disulfide 1-6
SMILES: CC[C@H](C)[C@H](NC(=O)[C@@H]1CCCN1C(=O)CNC(=O)[C@H](Cc1ccccc1)NC(=O)[C@H](CC(N)=O)NC(=O)[C@H](CC(N)=O)NC(=O)[C@H](CO)NC(=O)[C@H](CO)NC(=O)[C@H](CCCNC(=N)N)NC(=O)[C@H](Cc1c[nH]cn1)NC(=O)[C@H](CC(C)C)NC(=O)[C@H](Cc1ccccc1)NC(=O)[C@H](CCC(=O)O)NC(=O)[C@H](C)NC(=O)[C@H](CC(C)C)NC(=O)[C@H](CCCNC(=N)N)NC(=O)[C@H](CCC(N)=O)NC(=O)[C@@H](NC(=O)[C@H](C)NC(=O)[C@@H]1CSSC[C@H](NC(=O)CC[C@H](NC(=O)CCCCCCCCCCCCCCCCCCC(=O)O)C(=O)O)C(=O)NCC(=O)N[C@@H]([C@@H](C)O)C(=O)N[C@@H](C)C(=O)N[C@@H]([C@@H](C)O)C(=O)N1)[C@@H](C)O)C(=O)N[C@@H](CC(C)C)C(=O)N1CCC[C@H]1C(=O)N1CCC[C@H]1C(=O)N[C@H](C(=O)N[C@@H](CCC(=O)O)C(=O)N[C@H](C(=O)NCC(=O)N[C@@H](CO)C(=O)NCC(=O)N[C@H](C(=O)N[C@@H](Cc1ccc(O)cc1)C(N)=O)[C@@H](C)O)C(C)C)[C@@H](C)O

Legend:
[1] = molecular target: T1, human calcitonin (a) receptor (human, UniProt P30988 25-474); experiment: cell-based or functional assay
T1 sequence (looked up): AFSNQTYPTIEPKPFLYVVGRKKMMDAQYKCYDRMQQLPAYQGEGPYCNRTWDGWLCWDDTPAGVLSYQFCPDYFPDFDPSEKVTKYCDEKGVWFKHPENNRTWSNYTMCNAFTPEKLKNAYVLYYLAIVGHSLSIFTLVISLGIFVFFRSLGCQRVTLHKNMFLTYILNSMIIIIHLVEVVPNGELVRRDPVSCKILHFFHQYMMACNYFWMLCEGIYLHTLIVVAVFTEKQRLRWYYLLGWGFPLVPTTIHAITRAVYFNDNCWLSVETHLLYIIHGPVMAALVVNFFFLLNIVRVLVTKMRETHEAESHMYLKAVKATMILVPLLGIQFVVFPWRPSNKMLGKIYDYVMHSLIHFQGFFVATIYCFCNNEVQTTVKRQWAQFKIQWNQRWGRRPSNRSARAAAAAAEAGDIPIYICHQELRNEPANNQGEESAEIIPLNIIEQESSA

[2] = molecular target: T2, human amylin 3(a) receptor (human calcitonin receptor + RAMP-3) (human, UniProt P30988 25-474; O60896 24-148); experiment: cell-based or functional assay
T2 sequence (looked up) 1: T1 sequence (looked up)
T2 sequence (looked up) 2: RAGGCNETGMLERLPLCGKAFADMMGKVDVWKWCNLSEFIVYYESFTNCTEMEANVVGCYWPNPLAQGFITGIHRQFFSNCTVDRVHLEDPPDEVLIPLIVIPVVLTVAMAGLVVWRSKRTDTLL

Binder | CTa receptor human EC50 [1] | Amylin receptor human EC50 [2]
B1 | 3570 pM | 1710 pM
B2 | 34 pM | 39 pM
B3 | 113 pM | 203 pM
B4 | 85 pM | 71 pM
B5 | 76 pM | 90 pM
B6 | 4300 pM | 602 pM
B7 | 222 pM | 164 pM
